Measured values taken from paper PMC4251045.

Tests used:
[1] = target: Rim1-C-terminal 6xHis (yeast); test: cross-linking; SDA (NHS-diazirine) 50 uM, 3 uM Rim1 tetramer, 25 mM HEPES, 100 mM NaCl, 10% glycerol, pH 7.5, NHS step 25 °C 30 min, then UV 365 nm; SDS-PAGE; bands analysed by nanoLC-LTQ-Orbitrap MS (XLPM)
[2] = target: Rim1-C-terminal 6xHis (yeast); test: cross-linking; DSS 2.5 mM, 3 uM Rim1 tetramer, 25 mM HEPES, 100 mM NaCl, 10% glycerol, pH 7.5, room temperature 40 min; products resolved on 5-15% SDS-PAGE; bands digested and analysed by nanoLC-LTQ-Orbitrap MS (XLPM, StavroX)

Substance: Rim1-C-terminal 6xHis (natural protein)
- stoichiometry N [1]: 4
- stoichiometry N [2]: 4
